Test results taken from paper PMC9482650, “Quantitative fragmentomics allow affinity mapping of interactomes” (Nature Communications, 2022).

T1: TJP3_3, O95049
T1 sequence (O95049 375-456, limits assumed, looked up): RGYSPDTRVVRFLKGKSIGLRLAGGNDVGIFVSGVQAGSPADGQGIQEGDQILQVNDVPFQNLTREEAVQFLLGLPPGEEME

T2: NHERF3_1, Q5T2W1
T2 sequence (Q5T2W1 4-100, limits assumed, looked up): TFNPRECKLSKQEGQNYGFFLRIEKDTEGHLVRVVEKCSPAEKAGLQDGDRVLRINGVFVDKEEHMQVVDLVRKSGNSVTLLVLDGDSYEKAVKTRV

T3: GRIP1_7, Q9Y3R0
T3 sequence (Q9Y3R0 999-1096, limits assumed, looked up): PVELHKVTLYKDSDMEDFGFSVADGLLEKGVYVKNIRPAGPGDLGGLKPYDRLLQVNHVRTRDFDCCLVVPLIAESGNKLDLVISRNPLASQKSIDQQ

T4: LRRC7, Q96NW7
T4 sequence (Q96NW7 1440-1537, limits assumed, looked up): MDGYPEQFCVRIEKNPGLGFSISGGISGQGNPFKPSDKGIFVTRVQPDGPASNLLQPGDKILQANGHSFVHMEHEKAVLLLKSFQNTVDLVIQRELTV

T5: MPDZ_10, O75970
T5 sequence (O75970 1624-1722, limits assumed, looked up): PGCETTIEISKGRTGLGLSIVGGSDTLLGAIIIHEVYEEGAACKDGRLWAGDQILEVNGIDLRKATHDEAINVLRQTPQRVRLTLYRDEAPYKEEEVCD

T6: RHPN1, Q8TCX5
T6 sequence (Q8TCX5 508-602, limits assumed, looked up): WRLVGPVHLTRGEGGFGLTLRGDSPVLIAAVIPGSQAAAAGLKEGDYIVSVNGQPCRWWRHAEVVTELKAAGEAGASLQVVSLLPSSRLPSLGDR

T7: MPDZ_12, O75970
T7 sequence (O75970 1857-1958, limits assumed, looked up): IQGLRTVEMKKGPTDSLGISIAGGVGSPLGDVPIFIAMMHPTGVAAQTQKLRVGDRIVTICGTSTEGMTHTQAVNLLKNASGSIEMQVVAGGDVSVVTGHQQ

T8: SYNJ2BP, P57105
T8 sequence (P57105 8-110, limits assumed, looked up): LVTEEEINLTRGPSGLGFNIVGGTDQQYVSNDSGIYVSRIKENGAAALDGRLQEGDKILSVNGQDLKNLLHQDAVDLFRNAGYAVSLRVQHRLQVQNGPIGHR

T9: PTPN13_1, Q12923
T9 sequence (Q12923 1088-1188, limits assumed, looked up): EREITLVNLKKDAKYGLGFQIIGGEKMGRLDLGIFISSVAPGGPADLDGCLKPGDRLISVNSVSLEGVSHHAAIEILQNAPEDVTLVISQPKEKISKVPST

T10: APBA3_1, O96018
T10 sequence (O96018 389-490, limits assumed, looked up): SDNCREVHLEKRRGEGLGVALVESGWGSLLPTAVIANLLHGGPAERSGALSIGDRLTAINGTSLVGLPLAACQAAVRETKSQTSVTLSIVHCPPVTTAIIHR

T11: APBA2_1, Q99767
T11 sequence (Q99767 563-664, limits assumed, looked up): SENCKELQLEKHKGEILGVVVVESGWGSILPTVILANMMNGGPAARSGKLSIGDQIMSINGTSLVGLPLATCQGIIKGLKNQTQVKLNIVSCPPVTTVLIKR

T12: SNTA1, Q13424
T12 sequence (Q13424 82-180, limits assumed, looked up): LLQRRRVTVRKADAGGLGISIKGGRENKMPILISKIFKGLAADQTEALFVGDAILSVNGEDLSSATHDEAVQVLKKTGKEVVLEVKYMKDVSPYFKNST

T13: DFNB31_2, Q9P202
T13 sequence (Q9P202 274-371, limits assumed, looked up): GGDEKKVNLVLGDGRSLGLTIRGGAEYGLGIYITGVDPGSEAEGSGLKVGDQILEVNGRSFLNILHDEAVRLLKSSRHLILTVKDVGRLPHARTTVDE

B1: TECPR2, O15040 (peptide)
chain: EDLEDEWEVI
B2: ABCA2, Q9BZC7 (peptide)
chain: QLSFNTDTLC
B3: PRKACA, P17612 (peptide)
chain: EKCGKEFSEF

Each binder was assayed against LNX1_3, Q8TBB1 (assay: holdup assay). Details: plain residues with an end cap or a label only (N-terminal biotin on a linker: ado-ado).
Parameters: key: below the threshold = too weak to quantify, mostly under pKd 3.1 to 4

Sequence of LNX1_3, Q8TBB1 (Q8TBB1 500-596): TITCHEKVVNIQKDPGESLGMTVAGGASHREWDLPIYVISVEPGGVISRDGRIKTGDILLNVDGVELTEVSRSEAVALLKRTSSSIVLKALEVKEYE

Binder | pKd
B1 | below the threshold
B2 | below the threshold
B3 | below the threshold

These binders were tested against T1, TJP3_3, O95049 (assay: holdup assay). Details: plain residues with an end cap or a label only (N-terminal biotin on a linker: ado-ado).
Parameters: key: below the threshold = too weak to quantify, mostly under pKd 3.1 to 4

Binder | pKd
B1 | below the threshold
B2 | below the threshold
B3 | below the threshold

The binders below were run against T2, NHERF3_1, Q5T2W1 (assay: holdup assay). Details: plain residues with an end cap or a label only (N-terminal biotin on a linker: ado-ado).
Parameters: key: below the threshold = too weak to quantify, mostly under pKd 3.1 to 4

Binder | pKd
B1 | below the threshold
B2 | 4.07
B3 | below the threshold

The binders below were run against T3, GRIP1_7, Q9Y3R0 (assay: holdup assay). Details: plain residues with an end cap or a label only (N-terminal biotin on a linker: ado-ado).
Parameters: key: below the threshold = too weak to quantify, mostly under pKd 3.1 to 4

Binder | pKd
B1 | below the threshold
B2 | below the threshold
B3 | below the threshold

These binders were tested against PDZRN4_1, Q6ZMN7 (assay: holdup assay). Details: plain residues with an end cap or a label only (N-terminal biotin on a linker: ado-ado).
Parameters: key: below the threshold = too weak to quantify, mostly under pKd 3.1 to 4

Sequence of PDZRN4_1, Q6ZMN7 (Q6ZMN7 213-318): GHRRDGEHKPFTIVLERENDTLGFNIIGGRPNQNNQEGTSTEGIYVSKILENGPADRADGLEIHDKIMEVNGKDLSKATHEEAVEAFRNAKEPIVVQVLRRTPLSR

Binder | pKd
B1 | below the threshold
B2 | below the threshold
B3 | below the threshold

What follows are binders tested against T4, LRRC7, Q96NW7 (assay: holdup assay). Details: plain residues with an end cap or a label only (N-terminal biotin on a linker: ado-ado).
Parameters: key: below the threshold = too weak to quantify, mostly under pKd 3.1 to 4

Binder | pKd
B1 | below the threshold
B2 | below the threshold
B3 | below the threshold

The binders below were run against MAGI2_2, Q86UL8 (assay: holdup assay). Details: plain residues with an end cap or a label only (N-terminal biotin on a linker: ado-ado).
Parameters: key: below the threshold = too weak to quantify, mostly under pKd 3.1 to 4

Sequence of MAGI2_2, Q86UL8 (Q86UL8 410-522): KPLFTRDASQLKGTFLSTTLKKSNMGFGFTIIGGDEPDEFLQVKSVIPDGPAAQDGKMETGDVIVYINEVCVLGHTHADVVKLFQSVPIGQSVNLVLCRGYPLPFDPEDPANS

Binder | pKd
B1 | below the threshold
B2 | below the threshold
B3 | below the threshold

What follows are binders tested against T5, MPDZ_10, O75970 (assay: holdup assay). Details: plain residues with an end cap or a label only (N-terminal biotin on a linker: ado-ado).
Parameters: key: below the threshold = too weak to quantify, mostly under pKd 3.1 to 4

Binder | pKd
B1 | below the threshold
B2 | below the threshold
B3 | below the threshold

Each binder was assayed against DLG1_2, Q12959 (assay: holdup assay). Details: plain residues with an end cap or a label only (N-terminal biotin on a linker: ado-ado).
Parameters: key: below the threshold = too weak to quantify, mostly under pKd 3.1 to 4

Binder | pKd
B1 | below the threshold
B2 | 3.88
B3 | 3.52

What follows are binders tested against T6, RHPN1, Q8TCX5 (assay: holdup assay). Details: plain residues with an end cap or a label only (N-terminal biotin on a linker: ado-ado).
Parameters: key: below the threshold = too weak to quantify, mostly under pKd 3.1 to 4

Binder | pKd
B1 | 3.57
B2 | below the threshold
B3 | below the threshold

What follows are binders tested against DLG1_3, Q12959 (assay: holdup assay). Details: plain residues with an end cap or a label only (N-terminal biotin on a linker: ado-ado).
Parameters: key: below the threshold = too weak to quantify, mostly under pKd 3.1 to 4

Binder | pKd
B1 | below the threshold
B2 | below the threshold
B3 | below the threshold

What follows are binders tested against Inadl_5, Q8NI35 (assay: holdup assay). Details: plain residues with an end cap or a label only (N-terminal biotin on a linker: ado-ado).
Parameters: key: below the threshold = too weak to quantify, mostly under pKd 3.1 to 4

Sequence of Inadl_5, Q8NI35 (Q8NI35 673-780): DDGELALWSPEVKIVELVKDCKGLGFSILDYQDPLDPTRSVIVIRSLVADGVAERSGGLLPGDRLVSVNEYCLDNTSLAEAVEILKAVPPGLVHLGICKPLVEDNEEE

Binder | pKd
B1 | below the threshold
B2 | below the threshold
B3 | below the threshold

These binders were tested against T7, MPDZ_12, O75970 (assay: holdup assay). Details: plain residues with an end cap or a label only (N-terminal biotin on a linker: ado-ado).
Parameters: key: below the threshold = too weak to quantify, mostly under pKd 3.1 to 4

Binder | pKd
B1 | below the threshold
B2 | below the threshold
B3 | below the threshold

Each binder was assayed against DLG1_1, Q12959 (assay: holdup assay). Details: plain residues with an end cap or a label only (N-terminal biotin on a linker: ado-ado).
Parameters: key: below the threshold = too weak to quantify, mostly under pKd 3.1 to 4

Binder | pKd
B1 | below the threshold
B2 | 3.87
B3 | below the threshold

What follows are binders tested against T8, SYNJ2BP, P57105 (assay: holdup assay). Details: plain residues with an end cap or a label only (N-terminal biotin on a linker: ado-ado).
Parameters: key: below the threshold = too weak to quantify, mostly under pKd 3.1 to 4

Binder | pKd
B1 | below the threshold
B2 | 3.58
B3 | below the threshold

What follows are binders tested against T9, PTPN13_1, Q12923 (assay: holdup assay). Details: plain residues with an end cap or a label only (N-terminal biotin on a linker: ado-ado).
Parameters: key: below the threshold = too weak to quantify, mostly under pKd 3.1 to 4

Binder | pKd
B1 | below the threshold
B2 | below the threshold
B3 | below the threshold

The binders below were run against GRIP2_7, Q9C0E4 (assay: holdup assay). Details: plain residues with an end cap or a label only (N-terminal biotin on a linker: ado-ado).
Parameters: key: below the threshold = too weak to quantify, mostly under pKd 3.1 to 4

Sequence of GRIP2_7, Q9C0E4 (Q9C0E4 934-1023): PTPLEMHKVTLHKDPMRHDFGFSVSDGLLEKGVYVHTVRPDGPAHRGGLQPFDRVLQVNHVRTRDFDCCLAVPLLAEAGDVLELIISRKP

Binder | pKd
B1 | below the threshold
B2 | below the threshold
B3 | below the threshold

What follows are binders tested against MAGI1_2, Q96QZ7 (assay: holdup assay). Details: plain residues with an end cap or a label only (N-terminal biotin on a linker: ado-ado).
Parameters: key: below the threshold = too weak to quantify, mostly under pKd 3.1 to 4

Sequence of MAGI1_2, Q96QZ7 (Q96QZ7 456-580): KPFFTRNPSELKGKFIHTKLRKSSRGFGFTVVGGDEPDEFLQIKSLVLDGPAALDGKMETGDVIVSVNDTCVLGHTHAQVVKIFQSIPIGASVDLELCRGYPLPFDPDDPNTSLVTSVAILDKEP

Binder | pKd
B1 | below the threshold
B2 | below the threshold
B3 | below the threshold

What follows are binders tested against T10, APBA3_1, O96018 (assay: holdup assay). Details: plain residues with an end cap or a label only (N-terminal biotin on a linker: ado-ado).
Parameters: key: below the threshold = too weak to quantify, mostly under pKd 3.1 to 4

Binder | pKd
B1 | below the threshold
B2 | below the threshold
B3 | below the threshold

Each binder was assayed against MAGI2_4, Q86UL8 (assay: holdup assay). Details: plain residues with an end cap or a label only (N-terminal biotin on a linker: ado-ado).
Parameters: key: below the threshold = too weak to quantify, mostly under pKd 3.1 to 4

Sequence of MAGI2_4, Q86UL8 (Q86UL8 772-865): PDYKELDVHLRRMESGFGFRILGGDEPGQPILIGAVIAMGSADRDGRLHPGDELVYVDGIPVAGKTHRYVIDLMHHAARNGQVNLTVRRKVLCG

Binder | pKd
B1 | below the threshold
B2 | 4.17
B3 | 3.62

The binders below were run against T11, APBA2_1, Q99767 (assay: holdup assay). Details: plain residues with an end cap or a label only (N-terminal biotin on a linker: ado-ado).
Parameters: key: below the threshold = too weak to quantify, mostly under pKd 3.1 to 4

Binder | pKd
B1 | below the threshold
B2 | below the threshold
B3 | below the threshold

The binders below were run against T12, SNTA1, Q13424 (assay: holdup assay). Details: plain residues with an end cap or a label only (N-terminal biotin on a linker: ado-ado).
Parameters: key: below the threshold = too weak to quantify, mostly under pKd 3.1 to 4

Binder | pKd
B1 | below the threshold
B2 | below the threshold
B3 | below the threshold

Each binder was assayed against CASK, O14936 (assay: holdup assay). Details: plain residues with an end cap or a label only (N-terminal biotin on a linker: ado-ado).
Parameters: key: below the threshold = too weak to quantify, mostly under pKd 3.1 to 4

Sequence of CASK, O14936 (O14936 487-570): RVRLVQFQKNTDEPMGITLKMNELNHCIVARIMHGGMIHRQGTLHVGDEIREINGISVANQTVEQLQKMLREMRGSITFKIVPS

Binder | pKd
B1 | below the threshold
B2 | below the threshold
B3 | below the threshold

These binders were tested against NHERF4_4, Q86UT5 (assay: holdup assay). Details: plain residues with an end cap or a label only (N-terminal biotin on a linker: ado-ado).
Parameters: key: below the threshold = too weak to quantify, mostly under pKd 3.1 to 4

Sequence of NHERF4_4, Q86UT5 (Q86UT5 464-550): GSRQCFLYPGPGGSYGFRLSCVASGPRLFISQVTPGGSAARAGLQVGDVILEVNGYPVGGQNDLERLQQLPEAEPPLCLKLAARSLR

Binder | pKd
B1 | below the threshold
B2 | below the threshold
B3 | below the threshold

What follows are binders tested against T13, DFNB31_2, Q9P202 (assay: holdup assay). Details: plain residues with an end cap or a label only (N-terminal biotin on a linker: ado-ado).
Parameters: key: below the threshold = too weak to quantify, mostly under pKd 3.1 to 4

Binder | pKd
B1 | below the threshold
B2 | below the threshold
B3 | below the threshold
